{
  "source": "patent US7608262",
  "target": "recombinant human TNF (human) (UniProt P01375)",
  "sequence (P01375 77-233 limits assumed)": "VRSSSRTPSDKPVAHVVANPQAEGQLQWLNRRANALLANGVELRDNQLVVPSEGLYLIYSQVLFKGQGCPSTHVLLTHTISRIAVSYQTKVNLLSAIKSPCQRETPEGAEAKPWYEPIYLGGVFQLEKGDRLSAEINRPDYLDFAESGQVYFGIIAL",
  "assay": "binding assays of cA2 and recombinant human TNF (format not described)",
  "data": [
    {"substance": "chimeric A2 (cA2) anti-TNF monoclonal antibody", "values": [
      {"measurement": "Ka", "value": "1.8e+09", "unit": "M⁻¹"}
    ]}
  ]
}
